Paper PMC12540712

Biological target: And-1 HMG domain, 984-1129 (UniProt O75717)
Assay: GST-HMG pull-down of SepB, immunoblot
Conditions: reference: wild-type SepB; sites T826

Substance: And-1 SepB domain, 330-984 (from UniProt O75717) T826A SepB
- binding against the reference: stronger
